According to patent US20060057632A1 (KEIO UNIVERSITY, published 2006):

Target: T1, peptide TM1 (N'-TRVTSFLDWIHEQMERDLKT-C')
T1 construct: Peptide antigen coated on the plate
T1 peptide: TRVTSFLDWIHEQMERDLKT
Test: binding implied by the name and by sequencing of ELISA positive clones (phage ELISA on coated TM1); not said in so many words

B1: TM1 scFV (scFv)
scFv: ETTLTQSPSSLSASVGDRVTITCRTSQTINNYLNWYQQKPGKAPKVLIFGASRLQSGVPSRFSGSGSGTHFTLTITSLQPEDVATYYCQQSYGTPYTFGQGTKVEIKVDITSYNVYYTKLSLEQVQLQQWGAGLLKPSETLSLTCAIYNGSFGGYYWNWIRQPPGKGLEWIGEINQRESTNFNPSFKSRVTMSVDTSNNQFSLRLSSLTAADTAVYFCARGLYYDTTGFFDAFAVWGQGTTVTVSHLGLMGHHHHHH
**Q.** Does B1 bind?
**A.** Result: binds
